The numbers were not newly measured in publication PMC8773757, which cites them from elsewhere.

In general, Kd refers to a measure of binding affinity in units of concentration.

The target in data set [1] is HIF-1α PAS-B (Homo sapiens) (UniProt Q16665).
The target in another data set is p300/CBP (Homo sapiens) (UniProt Q09472).
Data set [2] concerns the target thymidylate synthase (Homo sapiens) (UniProt P04818).
A further data set deals with CDC37 (Homo sapiens) (UniProt Q16543).
Chain of UniProt Q16543 (Q16543 2-378): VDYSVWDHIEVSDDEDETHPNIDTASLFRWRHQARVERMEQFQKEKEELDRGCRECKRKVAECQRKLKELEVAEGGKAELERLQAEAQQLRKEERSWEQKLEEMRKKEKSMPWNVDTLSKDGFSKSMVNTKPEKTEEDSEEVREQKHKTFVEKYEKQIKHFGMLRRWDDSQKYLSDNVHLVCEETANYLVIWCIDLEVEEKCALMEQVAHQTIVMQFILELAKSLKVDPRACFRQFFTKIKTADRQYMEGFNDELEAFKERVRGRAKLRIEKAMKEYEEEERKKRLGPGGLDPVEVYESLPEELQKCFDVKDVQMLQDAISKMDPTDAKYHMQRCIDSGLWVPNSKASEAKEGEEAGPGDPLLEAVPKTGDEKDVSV

Chain of HIF-1α (Q16665 whole entry): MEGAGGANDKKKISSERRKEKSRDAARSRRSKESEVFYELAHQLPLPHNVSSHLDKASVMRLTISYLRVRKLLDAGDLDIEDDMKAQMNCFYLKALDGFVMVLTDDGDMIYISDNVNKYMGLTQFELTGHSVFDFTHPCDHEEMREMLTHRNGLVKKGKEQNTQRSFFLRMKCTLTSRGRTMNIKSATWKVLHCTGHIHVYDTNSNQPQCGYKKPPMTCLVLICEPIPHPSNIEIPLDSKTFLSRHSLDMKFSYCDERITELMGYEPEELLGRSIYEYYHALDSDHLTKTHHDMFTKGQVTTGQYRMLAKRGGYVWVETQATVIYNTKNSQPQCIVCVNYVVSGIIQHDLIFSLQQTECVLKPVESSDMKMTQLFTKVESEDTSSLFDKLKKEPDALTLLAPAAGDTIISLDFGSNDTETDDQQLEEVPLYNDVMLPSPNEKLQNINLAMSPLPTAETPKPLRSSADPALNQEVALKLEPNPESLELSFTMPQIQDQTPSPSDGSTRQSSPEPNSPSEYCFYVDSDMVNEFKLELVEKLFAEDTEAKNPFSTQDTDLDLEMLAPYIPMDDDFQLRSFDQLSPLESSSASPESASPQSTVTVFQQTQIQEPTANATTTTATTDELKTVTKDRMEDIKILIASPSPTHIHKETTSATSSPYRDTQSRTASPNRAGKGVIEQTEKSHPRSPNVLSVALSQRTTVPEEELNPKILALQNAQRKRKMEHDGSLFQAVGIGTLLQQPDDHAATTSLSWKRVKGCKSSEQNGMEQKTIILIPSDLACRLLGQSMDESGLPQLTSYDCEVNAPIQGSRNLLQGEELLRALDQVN
Chain of UniProt Q09472 (Q09472 2-2414): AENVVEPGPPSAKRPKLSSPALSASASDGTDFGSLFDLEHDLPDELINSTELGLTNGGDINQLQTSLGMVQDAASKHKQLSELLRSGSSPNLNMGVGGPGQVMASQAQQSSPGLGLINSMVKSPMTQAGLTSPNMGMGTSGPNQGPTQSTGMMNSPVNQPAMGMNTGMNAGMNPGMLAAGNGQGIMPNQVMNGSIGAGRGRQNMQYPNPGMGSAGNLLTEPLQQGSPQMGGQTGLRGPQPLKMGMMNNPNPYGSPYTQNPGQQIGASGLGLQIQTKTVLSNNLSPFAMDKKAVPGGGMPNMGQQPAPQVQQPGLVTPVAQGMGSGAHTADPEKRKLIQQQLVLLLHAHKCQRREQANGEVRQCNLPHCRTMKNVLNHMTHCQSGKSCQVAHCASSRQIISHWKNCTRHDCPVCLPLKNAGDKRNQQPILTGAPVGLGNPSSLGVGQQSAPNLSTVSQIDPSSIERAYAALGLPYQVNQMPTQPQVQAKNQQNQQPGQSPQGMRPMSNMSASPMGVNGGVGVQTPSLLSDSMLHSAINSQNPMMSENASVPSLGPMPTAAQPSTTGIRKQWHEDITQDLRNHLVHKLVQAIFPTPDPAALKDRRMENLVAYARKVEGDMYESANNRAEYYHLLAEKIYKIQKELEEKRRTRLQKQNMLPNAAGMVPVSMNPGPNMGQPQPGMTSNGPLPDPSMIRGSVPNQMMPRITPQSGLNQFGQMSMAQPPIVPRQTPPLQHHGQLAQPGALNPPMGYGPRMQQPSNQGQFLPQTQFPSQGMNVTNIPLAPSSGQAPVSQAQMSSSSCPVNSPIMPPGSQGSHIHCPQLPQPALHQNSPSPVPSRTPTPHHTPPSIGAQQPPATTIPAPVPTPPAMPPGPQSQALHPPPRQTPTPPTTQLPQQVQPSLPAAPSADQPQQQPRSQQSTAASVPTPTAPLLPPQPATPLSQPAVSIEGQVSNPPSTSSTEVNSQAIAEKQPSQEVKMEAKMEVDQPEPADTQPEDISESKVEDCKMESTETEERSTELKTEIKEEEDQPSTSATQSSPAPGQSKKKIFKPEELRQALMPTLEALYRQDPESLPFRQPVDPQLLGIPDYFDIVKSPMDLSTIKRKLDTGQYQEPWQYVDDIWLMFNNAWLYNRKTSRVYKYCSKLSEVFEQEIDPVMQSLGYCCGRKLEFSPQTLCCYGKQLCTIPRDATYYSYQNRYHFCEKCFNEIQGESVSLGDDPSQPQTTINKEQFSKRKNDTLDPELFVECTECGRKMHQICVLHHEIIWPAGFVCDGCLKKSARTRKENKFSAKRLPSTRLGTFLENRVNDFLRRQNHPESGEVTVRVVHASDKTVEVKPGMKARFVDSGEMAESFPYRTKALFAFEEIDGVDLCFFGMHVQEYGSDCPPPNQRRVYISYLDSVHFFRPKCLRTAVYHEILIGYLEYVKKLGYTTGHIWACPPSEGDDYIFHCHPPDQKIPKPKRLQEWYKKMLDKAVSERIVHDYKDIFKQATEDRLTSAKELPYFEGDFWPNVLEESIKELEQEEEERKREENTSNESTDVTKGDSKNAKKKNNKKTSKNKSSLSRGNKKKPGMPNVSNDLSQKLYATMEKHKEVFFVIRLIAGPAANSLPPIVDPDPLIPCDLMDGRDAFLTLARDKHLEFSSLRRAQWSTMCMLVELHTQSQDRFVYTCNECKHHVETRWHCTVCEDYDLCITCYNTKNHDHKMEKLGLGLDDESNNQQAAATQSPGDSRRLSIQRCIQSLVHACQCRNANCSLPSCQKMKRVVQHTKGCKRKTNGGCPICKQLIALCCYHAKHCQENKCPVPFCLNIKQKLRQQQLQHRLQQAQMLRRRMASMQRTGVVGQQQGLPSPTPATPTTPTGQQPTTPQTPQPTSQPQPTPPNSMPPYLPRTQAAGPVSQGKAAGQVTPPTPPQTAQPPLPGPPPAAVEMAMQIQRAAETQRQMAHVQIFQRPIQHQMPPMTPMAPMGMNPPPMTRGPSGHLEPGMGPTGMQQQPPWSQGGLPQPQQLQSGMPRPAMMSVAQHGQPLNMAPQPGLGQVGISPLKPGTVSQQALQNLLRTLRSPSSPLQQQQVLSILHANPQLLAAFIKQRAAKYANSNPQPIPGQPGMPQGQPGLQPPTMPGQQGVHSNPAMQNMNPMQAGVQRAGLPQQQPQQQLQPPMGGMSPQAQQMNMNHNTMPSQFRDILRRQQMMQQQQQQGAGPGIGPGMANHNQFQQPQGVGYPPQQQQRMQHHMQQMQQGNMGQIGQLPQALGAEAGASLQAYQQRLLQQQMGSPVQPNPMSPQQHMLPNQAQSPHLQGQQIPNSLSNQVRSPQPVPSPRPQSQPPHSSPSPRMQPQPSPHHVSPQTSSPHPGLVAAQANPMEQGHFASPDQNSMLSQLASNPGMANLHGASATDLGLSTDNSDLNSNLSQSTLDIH

Take cyclo-CLLFVY: the Kd in data set [1] was 124 nM.
With HIF-1α (from UniProt Q16665), the equilibrium dissociation constant (Kd) with p300/CBP (Homo sapiens) is 7 nM.
As to “thymidylate synthase (from UniProt P04818)”, the dissociation constant Kd in data set [2] is 200 nM.
HSP90 (from UniProt P07900): the Kd in the data set with CDC37 (Homo sapiens) was 100000 nM.
